One protein from paper PMC7611338 (Current biology : CB, 2021) can be followed below.

This data set concerns the molecule itself. As to the kind of experiment: fluorescence correlation spectroscopy.

B1: dE-cad^WT::GFP (Drosophila E-cadherin, wild type, GFP-tagged) (natural protein)
chain: PGQSYAIIVRAYNVVPDPPQDAQIEVRIRVVESSIKPPSFVNPIDTPIYLKENLKNFTHPIATLRAVSNMPDKPEVIFELNTGRTEQTNSKNTFVFNQIGNEVTISLGKTLDYEAITDYTLTMIVRNTHELGTEHQIKIQVEDVNDNIPYYTEVKSGTILENEPPGTPVMQVRAFDMDGTSANNIVSFELADNREYFTIDPNTGNITALTTFDREERDFYNVKVIASDNSPSSLFDNGEPNRGHQVFRISIGDKNDHKPHFQQDKYLAERLLEDANTNTEVIEVKAEDEDNASQILYSIESGNVGDAFKIGLKTGKITVNQKLDYETITEYELKVRAFDGIYDDYTTVVIKIEDVNDNPPVFKQDYSVTILEETTYDDCILTVEAYDPDIKDRNADQHIVYSIHQNDGNRWTIDNSGCLRLVKTLDRDPPNGHKNWQVLIKANDEDGVGTTVSTVKEVTVTLKDINDNAPFLINEMPVYWQENRNPGHVVQLQANDYDDTPGAGNFTFGIDSEATPDIKTKFSMDGDYLHANVQFDREAQKEYFIPIRISDSGVPRQSAVSILHLVIGDVNDNAMSEGSSRIFIYNYKGEAPETDIGRVFVDDLDDWDLEDKYFEWKDLPHDQFRLNPSTGMITMLVHTAEGEYDLSFVVTEDSMFVPRHSVDAYVTVVVRELPEEAVDKSGSIRFINVTKEEFISVPRDFQSPDALSLKDRLQLSLAKLFNTSVSNVDVFTVLQNENHTLDVRFSAHGSPYYAPEKLNGIVAQNQQRLENELDLQMLMVNIDECLIEKFKCEESCTNELHKSSVPYMIYSNTTSFVGVNAFVQAQCVCEAPLMRRCLNGGSPRYGENDVCDCIDGFTGPHCELVSVAFYGSGYAFYEPIAACNNTKISLEITPQIDQGLIMYLGPLNFNPLLAISDFLALELDNGYPVLTVDYGSGAIRIRHQHIKMVADRTYQLDIILQRTSIEMTVDNCRLSTCQTLGAPIGPNEFLNVNAPLQLGGTPVDLEQLGRQLNWTHVPNQKGFFGCIRNLTINEQTYNLGMPSVFRNIDSGCQQSVAVAFSFGIDRNFIIAIIVCLALLLIILLAVVVQKKQKNGWHEKDIDDIRETIINYEDEGGGERDTDYDLNVLRTQPFYEEKLYKDPHALQGNMRDPNDIPDIADFLGDKKENCDRDVGATTVDDVRHYAYEGDGNSDGSLSSLASCTDDGDLNFDYLSNFGPRFRKLADMYGEEPSDTDSNVDDDQGWRI
The term stoichiometry N denotes a count of units in the complex or per binding partner. Consider B1, for which the “stoichiometry N” value is ~4.
